Tests used:
[1] = molecular target: T1, CCR1 on HEK293 cells / HEK293 membranes stably expressing CCR1 (UniProt P32246 1-355, limits assumed); assay: SPA competition assay, HEK293 cells/membranes expressing CCR1; competitor (tracer) 125I-CCL3
T1 construct: whole, on cells; also called chemokine receptor CCR1
T1 sequence (looked up): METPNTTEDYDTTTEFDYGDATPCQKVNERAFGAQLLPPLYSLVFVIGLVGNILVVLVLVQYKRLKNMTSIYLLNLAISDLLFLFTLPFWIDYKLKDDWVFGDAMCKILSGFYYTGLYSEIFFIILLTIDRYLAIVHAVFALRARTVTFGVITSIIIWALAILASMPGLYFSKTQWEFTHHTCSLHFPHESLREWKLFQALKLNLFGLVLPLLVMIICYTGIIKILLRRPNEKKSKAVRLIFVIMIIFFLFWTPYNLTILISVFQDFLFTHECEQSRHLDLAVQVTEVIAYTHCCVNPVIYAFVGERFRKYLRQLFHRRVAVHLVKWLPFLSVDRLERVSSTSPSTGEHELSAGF
Experimental: (§1) Scintillation proximity assay (SPA) binding assays (GE Healthcare, Piscataway, N.J.) were conducted essentially as previously described. HEK293 cells stably expressing CCR1 were used for these assays, and untransfected HEK293 cells were used as a control. Assays were undertaken in a 96-well plate format and each data point was assayed in triplicate on a Microbeta plate counter (Perkin Elmer) for 1 min per well. Each well contained 20,000 cells, 0.2 mg WGA-PVT-SPA beads, increasing concentrations of unlabeled competitor chemokine, and either […] ¹²⁵I-CCL3 or […] ¹²⁵I-Streptavidin +400 pM CCL3-Biotin, in a total volume of 100 μL. IC₅₀ values were obtained by nonlinear regression curve fitting using Prism software (GraphPad, La Jolla, Calif.).
(§2) In order to test the use of ¹²⁵I-streptavidin as a surrogate radiolabel in a chemokine SPA assay, competition assays using membranes containing the chemokine receptor CCR1 were performed. CCL3 was used for these assays because ¹²⁵I-CCL3 is commercially available, allowing for a direct comparison. After immobilization of membranes to SPA beads, either radiolabeled chemokine, or a combination of biotinylated chemokine and ¹²⁵I-labeled streptavidin was added. […] In contrast, no binding of CCL3 or competition with CCL14 was observed when CCR1-expressing membranes were replaced with untransfected HEK293 membranes. […]

[2] = molecular target: T1, CCR1 on HEK293 cells / HEK293 membranes …; assay: SPA competition assay, HEK293 cells/membranes expressing CCR1; competitor (tracer) CCL3-biotin with 125I-streptavidin
Experimental: as §1, §2

IC50 [1]: 2.6 nM | IC50 [2]: 0.9 nM
B1: CCL14 (unlabeled; functional form containing residues 9-74) (ligand)
chain: GPYHPSECCFTYTTYKIPRQRIMDYYETNSQCSKPGIVFITKRGHSVCTNPSDKWVQDYIKDMKEN
notes: Whether the entry is already trimmed to 9-74 is so no residue range is applied; Expressed as a His-ubiquitin fusion and cleaved with Usp2-cc to leave the native N-terminus; also called CCL14/HCC-1; HCC-1 (9-74)

From US20140045211A1 (University of California, published 2014)
